Test results taken from publication PMC5437307 (2017).
Several values for one entry are separate records, joined by “and”; a condition that tells them apart may be missing. Equal entries are not always repeated.

Assays:
[1] = molecular target: IL-2Rβγc (Homo sapiens) (UniProt P14784); conditions: cited from earlier work
[2] = molecular target: T1, F42A mutant (IL-2-Fc format) (human, UniProt P60568 21-153, F42A); assay: SPR
[3] = molecular target: T1, F42A mutant (IL-2-Fc format); assay: SPR; remark: listed apart in the source

Sequence of IL-2Rβγc (Homo sapiens) (P14784 27-240, chain 1 of 2): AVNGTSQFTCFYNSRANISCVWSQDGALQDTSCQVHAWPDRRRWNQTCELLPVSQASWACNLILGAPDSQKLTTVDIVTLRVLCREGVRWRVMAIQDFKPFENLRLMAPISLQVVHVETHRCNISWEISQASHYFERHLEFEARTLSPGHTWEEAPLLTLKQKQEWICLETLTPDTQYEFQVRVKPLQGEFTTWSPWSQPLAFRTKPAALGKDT
Sequence of IL-2Rβγc (Homo sapiens) (P31785 23-262, chain 2 of 2, further chain): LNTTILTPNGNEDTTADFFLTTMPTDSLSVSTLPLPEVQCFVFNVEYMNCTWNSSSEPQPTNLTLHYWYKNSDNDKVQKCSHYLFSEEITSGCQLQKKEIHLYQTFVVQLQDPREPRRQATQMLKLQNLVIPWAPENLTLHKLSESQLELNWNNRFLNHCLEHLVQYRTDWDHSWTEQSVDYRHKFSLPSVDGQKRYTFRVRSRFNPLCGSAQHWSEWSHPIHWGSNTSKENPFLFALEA
Sequence of IL-2 (P60568 21-153): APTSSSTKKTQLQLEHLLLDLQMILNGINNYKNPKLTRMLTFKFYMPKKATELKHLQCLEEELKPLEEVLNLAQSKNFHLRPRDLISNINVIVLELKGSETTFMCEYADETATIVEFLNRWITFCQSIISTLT

| Molecule | Kd [1] [nM] | Kd [2] | koff [3] [s⁻¹] |
| --- | --- | --- | --- |
| IL-2 (from UniProt P60568) | 1 |  |  |
| hCD25-His (receptor) ELCDDDPPEIPHATFKAMAYKEGTMLNCECKRGFRRIKSGSLYMLCTGNSSHSSWDNQCQCTSSATRNTTKQVTPQPEEQKERKTTEMQSPMQPVDQASLPGHCREPPPWENEATERIYHFVVGQMVYYQCVQGYRALHRGPAESVCKMTHGKTRWTQPQLICTGEMETSQFPGEEKPQASPEGRPESETSCLVTTTDFQIQTEMAATMETSIFTTEYQ |  | 1080 nM and 1100 nM | 0.325 |
